From US20210379147A1, “METHOD AND SYSTEM FOR TREATING CANCER UTILIZING TINAGL1” (The Trustees of Princeton University, priority 2018, published 2021)

Key:
[1] = molecular target: EGFR (Homo sapiens, UniProt P00533); assay: Co-immunoprecipitation of Tinagl1 / Tinagl1 mutants with EGFR; format: binding; details: LM2 cells with Tinagl1-HA stably expressed
Protocol: (§1) The functional domains of the Tinagl1 protein were mapped against EGFR, Integrin β1, and Integrin α5, and the results can be seen in Table 1, below. Specifically, it can be seen that the signal peptide (11) and Somatomedin B domain (12) are required to interact with EGFR, Integrin, and Integrin.
(§2) Immunoprecipitation (IP) and western blotting (WB) analysis. For an IP experiment, cells were collected in 1.5 ml EP tube when they reached to 100% confluency in 10 or 15 cm dish as indicated. 1 ml of IP lysis buffer (20 mM Tris pH7.4, 0.15 M NaCl, 1 mM EDTA, 1 mM EGTA, 1% Tx-100) with complete protease inhibitor cocktail (Roche, 14493900) was added and put on ice for 20 min. Meanwhile, culture media was 100× concentrated and mixed with the cell lysates. The samples were centrifuged, 100 μl of the supernatant was transferred to a new tube as input, and the rest was incubated with 2 μg of IgG, anti-HA, anti-Myc, anti-Integrin subunit β1, anti-Integrin subunit α5 or anti-EGFR (as indicated in each experiment) overnight at 4° C. (recombinant proteins may be added at this step as indicated in each experiment). 30 μL of protein A/G agarose beads (Santa Cruz, sc-2003) was then added in each sample for another 2 hours at 4° C. the next day. The beads were then washed for 5 times with IP lysis buffer. […] The IP samples were washed with PBS and analyzed with WB. […]

[2] = molecular target: Integrin β1 (Homo sapiens, UniProt P05556); assay: Co-immunoprecipitation of Tinagl1 / Tinagl1 mutants with integrin β1 subunit; format: binding; details: LM2 cells with Tinagl1-HA stably expressed
Protocol: as §1, §2

[3] = molecular target: Integrin α5 (Homo sapiens, UniProt P05556+P08648); assay: Co-immunoprecipitation of Tinagl1 / Tinagl1 mutants with integrin α5 subunit; format: binding; details: LM2 cells expressing Tinagl1-HA
Protocol: as §1, §2

[4] = molecular target: T1, integrin av subunit (Homo sapiens, UniProt P05556+P06756); assay: Co-immunoprecipitation of Tinagl1 with integrin av subunit; format: binding; details: LM2 cells expressing Tinagl1-HA
T1 construct: endogenous in cells; host or cells: LM2 cells stably expressing Tinagl1-HA
T1 sequence (P06756 31-889 limits assumed): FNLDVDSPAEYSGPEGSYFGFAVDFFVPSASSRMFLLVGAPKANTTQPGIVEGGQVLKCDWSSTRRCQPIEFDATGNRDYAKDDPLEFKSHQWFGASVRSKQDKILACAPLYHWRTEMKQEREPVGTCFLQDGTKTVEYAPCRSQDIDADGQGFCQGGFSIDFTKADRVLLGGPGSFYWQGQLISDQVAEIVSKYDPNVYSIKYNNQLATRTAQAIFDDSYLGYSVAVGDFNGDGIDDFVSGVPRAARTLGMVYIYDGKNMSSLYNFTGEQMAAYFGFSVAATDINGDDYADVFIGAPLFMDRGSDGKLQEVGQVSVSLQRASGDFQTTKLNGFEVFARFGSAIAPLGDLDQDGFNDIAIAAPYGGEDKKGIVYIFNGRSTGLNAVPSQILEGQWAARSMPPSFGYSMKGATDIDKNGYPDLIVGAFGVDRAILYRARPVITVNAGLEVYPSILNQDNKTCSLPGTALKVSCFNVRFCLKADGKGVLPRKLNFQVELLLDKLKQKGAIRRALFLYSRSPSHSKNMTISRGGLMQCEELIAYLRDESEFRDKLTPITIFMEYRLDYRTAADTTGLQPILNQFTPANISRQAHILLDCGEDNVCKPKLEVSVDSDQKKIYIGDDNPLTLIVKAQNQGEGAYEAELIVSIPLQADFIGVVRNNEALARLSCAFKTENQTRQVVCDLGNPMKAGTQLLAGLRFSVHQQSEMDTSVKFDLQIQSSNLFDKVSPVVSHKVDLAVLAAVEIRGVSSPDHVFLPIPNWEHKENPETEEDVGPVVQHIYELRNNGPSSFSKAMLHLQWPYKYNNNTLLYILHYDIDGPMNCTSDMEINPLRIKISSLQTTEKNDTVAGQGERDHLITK
T1 sequence (P06756 891-1048 limits assumed): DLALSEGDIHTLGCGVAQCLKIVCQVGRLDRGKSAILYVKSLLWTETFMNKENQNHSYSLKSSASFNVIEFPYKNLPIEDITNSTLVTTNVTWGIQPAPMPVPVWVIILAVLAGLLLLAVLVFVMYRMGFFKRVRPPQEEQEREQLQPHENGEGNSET
T1 sequence (P05556 21-798): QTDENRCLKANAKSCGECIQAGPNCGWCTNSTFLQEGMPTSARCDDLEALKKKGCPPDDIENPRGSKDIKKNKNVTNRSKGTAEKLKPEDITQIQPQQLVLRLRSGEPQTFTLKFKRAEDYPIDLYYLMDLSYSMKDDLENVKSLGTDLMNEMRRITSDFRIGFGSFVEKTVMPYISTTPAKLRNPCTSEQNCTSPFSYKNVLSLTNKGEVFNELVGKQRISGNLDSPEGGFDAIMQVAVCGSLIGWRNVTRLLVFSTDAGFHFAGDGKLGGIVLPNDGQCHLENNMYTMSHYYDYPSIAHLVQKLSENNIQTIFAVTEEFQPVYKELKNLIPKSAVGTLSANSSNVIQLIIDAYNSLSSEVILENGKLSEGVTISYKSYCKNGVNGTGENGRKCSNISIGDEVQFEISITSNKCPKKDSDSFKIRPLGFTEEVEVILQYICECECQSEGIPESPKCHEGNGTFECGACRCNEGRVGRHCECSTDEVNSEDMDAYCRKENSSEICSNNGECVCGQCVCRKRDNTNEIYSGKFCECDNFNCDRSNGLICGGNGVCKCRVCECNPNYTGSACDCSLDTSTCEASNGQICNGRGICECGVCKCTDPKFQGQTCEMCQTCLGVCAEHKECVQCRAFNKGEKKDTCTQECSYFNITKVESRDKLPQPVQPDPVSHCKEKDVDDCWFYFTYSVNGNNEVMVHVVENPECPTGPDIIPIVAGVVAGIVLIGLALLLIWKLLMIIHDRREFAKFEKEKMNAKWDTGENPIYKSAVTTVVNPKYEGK
Protocol: FIGS. 9A and 9B FIGS. 8E and 8F are images of WB analyses where LM2 cells expressing Tinagl1-HA stably were lysed and IP with IgG or anti-HA antibodies, then the IP samples were subjected to WB analysis with indicated antibodies to detect the interaction with integrin α5 subunit (9A) and integrin av subunit (9B).
as §2

[5] = system: FAK; assay: FN- or EGF-dependent FAK phosphorylation (WB); format: cell-based
Text: For WB analysis, cells were collected and lysed with IP lysis buffer described above. After boiled with SDS laemmli buffer, the samples were resolved with SDS-PAGE gel and immunoblotted with standard protocols.
FN is the major ligand for integrin α5β1 and αvβ1, and triggers integrin/FAK signal pathway after binding. FN was employed to evaluate the effects of Tinagl1 on the integrin/FAK pathway. […] Likewise, the activation of FAK by FN was attenuated in the cells overexpressing Tinagl1.

[6] = molecular target: T2, EGF (Homo sapiens, UniProt P01133); assay: Co-immunoprecipitation of Tinagl1-HA with recombinant EGF; format: binding; details: 5 μg r-EGF added into lysate
T2 construct: 5 μg of recombinant EGF (r-EGF) was added into the lysate
T2 sequence (P01133 971-1023 limits assumed, species assumed): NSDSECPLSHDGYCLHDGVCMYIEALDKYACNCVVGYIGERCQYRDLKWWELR
Protocol: FIG. 13A is an image of IP and WB assays where EK293T cells expressing Tinagl1-HA were lysed and 5 μg of recombinant EGF (r-EGF) was added into the lysate, which was then subjected to the assays.
Tinagl1 inhibits EGFR and integrin/FAK signaling pathways with distinct mechanisms. The interaction between EGFR and EGF causes conformational changes in EGFR, leading to EGFR dimerization, phosphorylation, and activation. Previous studies identified an EGFR antagonist, MIF, which competes with EGF for binding to EGFR and subsequently blocks its activation. Whether Tinagl1 inhibits EGFR activation in a similar manner was tested. […] Whether Tinagl1 and EGF compete with each other to interact with EGFR was tested. […] As a positive control, r-Tinagl1 competed with expressed Tinagl1-HA to interact with EGFR.

[7] = system: FN interaction with integrin subunits β1, α5, and αv; assay: Competition IP between Tinagl1, FN and integrin subunits; format: binding
FN interaction with integrin subunits β1, α5, and αv, sequence (as listed by the source): as the sequence (P05556 21-798) above

[8] = molecular target: FN (Homo sapiens, UniProt P02751); assay: IP of Tinagl1-HA with FN; format: binding; details: IP-Mass, IP/WB
FN, sequence (P02751 32-2477): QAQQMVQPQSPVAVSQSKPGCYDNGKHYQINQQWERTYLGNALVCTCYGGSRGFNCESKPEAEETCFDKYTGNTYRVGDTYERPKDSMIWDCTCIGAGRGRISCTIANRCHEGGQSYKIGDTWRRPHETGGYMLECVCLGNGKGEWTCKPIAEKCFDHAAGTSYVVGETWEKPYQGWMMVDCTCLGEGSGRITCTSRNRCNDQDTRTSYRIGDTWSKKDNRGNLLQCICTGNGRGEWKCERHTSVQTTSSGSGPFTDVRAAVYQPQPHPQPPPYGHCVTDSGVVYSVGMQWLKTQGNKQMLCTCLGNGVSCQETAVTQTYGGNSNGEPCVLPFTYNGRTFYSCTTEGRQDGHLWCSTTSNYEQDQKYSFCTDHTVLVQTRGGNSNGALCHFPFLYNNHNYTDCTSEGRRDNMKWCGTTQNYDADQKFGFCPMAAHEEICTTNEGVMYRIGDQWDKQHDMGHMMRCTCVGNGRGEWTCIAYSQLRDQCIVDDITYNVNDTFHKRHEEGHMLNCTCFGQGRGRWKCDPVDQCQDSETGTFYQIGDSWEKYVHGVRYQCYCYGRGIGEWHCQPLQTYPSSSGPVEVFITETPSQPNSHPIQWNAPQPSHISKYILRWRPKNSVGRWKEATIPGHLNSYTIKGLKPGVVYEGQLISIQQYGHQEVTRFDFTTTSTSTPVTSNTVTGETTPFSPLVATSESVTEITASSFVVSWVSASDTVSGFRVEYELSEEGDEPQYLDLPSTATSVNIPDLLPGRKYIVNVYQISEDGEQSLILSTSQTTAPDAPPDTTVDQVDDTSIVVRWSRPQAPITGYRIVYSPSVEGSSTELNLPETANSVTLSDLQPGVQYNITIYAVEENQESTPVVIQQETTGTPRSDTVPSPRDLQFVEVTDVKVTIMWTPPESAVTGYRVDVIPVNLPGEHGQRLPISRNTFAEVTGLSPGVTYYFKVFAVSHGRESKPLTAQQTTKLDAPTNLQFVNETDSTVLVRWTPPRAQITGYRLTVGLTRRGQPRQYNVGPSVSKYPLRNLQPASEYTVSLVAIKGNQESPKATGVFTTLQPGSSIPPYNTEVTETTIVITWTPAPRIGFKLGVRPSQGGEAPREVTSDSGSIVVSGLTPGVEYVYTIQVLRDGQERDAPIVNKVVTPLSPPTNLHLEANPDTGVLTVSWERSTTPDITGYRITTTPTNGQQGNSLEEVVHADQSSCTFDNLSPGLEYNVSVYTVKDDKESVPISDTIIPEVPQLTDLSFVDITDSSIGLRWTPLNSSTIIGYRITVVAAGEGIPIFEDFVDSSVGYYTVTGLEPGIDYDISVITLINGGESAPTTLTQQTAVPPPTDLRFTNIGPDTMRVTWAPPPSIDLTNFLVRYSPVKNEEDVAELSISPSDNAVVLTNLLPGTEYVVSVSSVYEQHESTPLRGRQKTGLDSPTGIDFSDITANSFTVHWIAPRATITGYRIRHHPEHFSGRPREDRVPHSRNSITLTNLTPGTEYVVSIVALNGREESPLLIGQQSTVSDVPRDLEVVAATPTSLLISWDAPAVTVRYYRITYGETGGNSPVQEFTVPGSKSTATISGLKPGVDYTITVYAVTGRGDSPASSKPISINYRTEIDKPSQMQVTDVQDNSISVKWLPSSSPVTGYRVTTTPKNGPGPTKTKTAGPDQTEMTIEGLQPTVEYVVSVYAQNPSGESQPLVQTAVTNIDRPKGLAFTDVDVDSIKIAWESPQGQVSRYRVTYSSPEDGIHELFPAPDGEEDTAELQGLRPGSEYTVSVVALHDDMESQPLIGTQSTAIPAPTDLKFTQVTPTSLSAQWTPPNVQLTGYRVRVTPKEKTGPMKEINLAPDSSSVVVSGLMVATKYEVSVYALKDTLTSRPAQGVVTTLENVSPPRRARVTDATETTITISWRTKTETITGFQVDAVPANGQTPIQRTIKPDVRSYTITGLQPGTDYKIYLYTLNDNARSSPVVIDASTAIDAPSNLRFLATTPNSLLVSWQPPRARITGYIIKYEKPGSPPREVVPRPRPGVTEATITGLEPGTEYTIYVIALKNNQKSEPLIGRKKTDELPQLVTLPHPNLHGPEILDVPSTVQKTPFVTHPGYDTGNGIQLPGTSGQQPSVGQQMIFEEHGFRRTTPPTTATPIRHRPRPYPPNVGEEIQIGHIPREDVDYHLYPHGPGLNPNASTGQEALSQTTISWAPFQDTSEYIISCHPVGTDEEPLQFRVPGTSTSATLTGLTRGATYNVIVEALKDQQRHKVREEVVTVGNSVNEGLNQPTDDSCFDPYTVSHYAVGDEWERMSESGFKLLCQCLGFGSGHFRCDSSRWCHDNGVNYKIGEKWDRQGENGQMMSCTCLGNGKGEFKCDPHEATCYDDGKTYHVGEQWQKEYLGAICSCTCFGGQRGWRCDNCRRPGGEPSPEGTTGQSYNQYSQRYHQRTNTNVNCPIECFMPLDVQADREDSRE
Protocol: FIG. 15B is an image of WB analyses where 5 μg of FN was added into the lysate of HEK293T cells expressing Tinagl1-HA, then the lysate was immunoprecipitated with indicated antibodies, followed by WB analysis.

[9] = molecular target: T3, mutant integrin β1 subunit (β1-M) (Homo sapiens, UniProt P05556, DEL130-240); assay: IP of Tinagl1-HA with mutant integrin β1 subunit; format: binding; details: HEK293T cells
T3 construct: host or cells: HEK293T
T3 sequence (P05556 with tags, fused parts or gaps DEL130-240): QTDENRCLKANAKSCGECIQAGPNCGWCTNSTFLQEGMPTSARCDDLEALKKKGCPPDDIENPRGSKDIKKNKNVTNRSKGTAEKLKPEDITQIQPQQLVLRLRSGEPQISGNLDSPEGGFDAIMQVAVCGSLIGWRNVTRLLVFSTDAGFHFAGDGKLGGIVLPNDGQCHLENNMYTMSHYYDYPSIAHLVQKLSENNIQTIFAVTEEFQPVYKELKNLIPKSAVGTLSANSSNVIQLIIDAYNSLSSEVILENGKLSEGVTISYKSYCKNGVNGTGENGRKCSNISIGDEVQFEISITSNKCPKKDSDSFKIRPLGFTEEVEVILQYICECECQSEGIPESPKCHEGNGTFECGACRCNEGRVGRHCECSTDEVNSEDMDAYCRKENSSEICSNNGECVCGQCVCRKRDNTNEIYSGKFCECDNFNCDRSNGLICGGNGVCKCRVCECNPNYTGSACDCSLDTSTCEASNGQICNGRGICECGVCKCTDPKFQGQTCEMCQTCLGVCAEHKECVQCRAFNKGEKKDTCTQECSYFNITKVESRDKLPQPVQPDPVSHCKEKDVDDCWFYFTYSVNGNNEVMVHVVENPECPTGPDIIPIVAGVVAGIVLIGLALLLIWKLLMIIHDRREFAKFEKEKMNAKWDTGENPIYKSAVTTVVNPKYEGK

B1: Tinagl1: Tubulointerstitial nephritis antigen like 1, secreted extracellular protein; in IP experiments expressed with C-terminal HA tag (protein, listed as Homo sapiens)
chain: MWRCPLGLLLLLPLAGHLALGAQQGRGRRELAPGLHLRGIRDAGGRYCQEQDLCCRGRADDCALPYLGAICYCDLFCNRTVSDCCPDFWDFCLGVPPPFPPIQGCMHGGRIYPVLGTYWDNCNRCTCQENRQWQCDQEPCLVDPDMIKAINQGNYGWQAGNHSAFWGMTLDEGIRYRLGTIRPSSSVMNMHEIYTVLNPGEVLPTAFEASEKWPNLIHEPLDQGNCAGSWAFSTAAVASDRVSIHSLGHMTPVLSPQNLLSCDTHQQQGCRGGRLDGAWWFLRRRGVVSDHCYPFSGRERDEAGPAPPCMMHSRAMGRGKRQATAHCPNSYVNNNDIYQVTPVYRLGSNDKEIMKELMENGPVQALMEVHEDFFLYKGGIYSHTPVSLGRPERYRRHGTHSVKITGWGEETLPDGRTLKYWTAANSWGPAWGERGHFRIVRGVNECDIESFVLGVWGRVGMEDMGHH
modifications: C-terminal HA tag in IP
notes: Tubulointerstitial nephritis antigen like 1, secreted extracellular protein; in IP experiments expressed with C-terminal HA tag
interaction with EGFR (co-IP) [1]: confirmed the interaction | interaction with integrin β1 subunit (co-IP) [2]: confirmed the interaction | interaction with integrin α5 subunit (co-IP) [3]: strongly interacted | interaction with integrin av subunit (co-IP) [4]: strongly interacted | EGF-induced FAK phosphorylation (Tyr925) [5]: blocks this specific effect of EGF on FAK activation | interaction between Tinagl1 and EGF [6]: failed to detect any interaction | interaction of subunits α5 or av with FN [7]: did not compete | interaction of FN with integrin β1 subunit ([7]; tested at 1, 2.5, and 5 μg): competitively reduced | interaction with FN [8]: interacted with FN | interaction with mutant β1 subunit (deletion of aa 130-240) [9]: cannot interact
